Results: patent US8163697B2, “Selective R-cadherin antagonists and methods” (The Scripps Research Institute, priority 2003, dated 2012)
Where a SMILES comes first, the peptide text is derived from it. Bridges are numbered along the chain shown (N, C = ends). Where no end group is shown, it is not given here.

Experiments:
R-cadherin = molecular target: T1, R-cadherin (Mus musculus, UniProt P39038); assay: Aggregation assay, R-cadherin transfected L-cells; assay type: cell-based; settings: R-cadherin expressing L-cells
T1 construct: expressed in transfected cells
T1 sequence (P39038 167-913): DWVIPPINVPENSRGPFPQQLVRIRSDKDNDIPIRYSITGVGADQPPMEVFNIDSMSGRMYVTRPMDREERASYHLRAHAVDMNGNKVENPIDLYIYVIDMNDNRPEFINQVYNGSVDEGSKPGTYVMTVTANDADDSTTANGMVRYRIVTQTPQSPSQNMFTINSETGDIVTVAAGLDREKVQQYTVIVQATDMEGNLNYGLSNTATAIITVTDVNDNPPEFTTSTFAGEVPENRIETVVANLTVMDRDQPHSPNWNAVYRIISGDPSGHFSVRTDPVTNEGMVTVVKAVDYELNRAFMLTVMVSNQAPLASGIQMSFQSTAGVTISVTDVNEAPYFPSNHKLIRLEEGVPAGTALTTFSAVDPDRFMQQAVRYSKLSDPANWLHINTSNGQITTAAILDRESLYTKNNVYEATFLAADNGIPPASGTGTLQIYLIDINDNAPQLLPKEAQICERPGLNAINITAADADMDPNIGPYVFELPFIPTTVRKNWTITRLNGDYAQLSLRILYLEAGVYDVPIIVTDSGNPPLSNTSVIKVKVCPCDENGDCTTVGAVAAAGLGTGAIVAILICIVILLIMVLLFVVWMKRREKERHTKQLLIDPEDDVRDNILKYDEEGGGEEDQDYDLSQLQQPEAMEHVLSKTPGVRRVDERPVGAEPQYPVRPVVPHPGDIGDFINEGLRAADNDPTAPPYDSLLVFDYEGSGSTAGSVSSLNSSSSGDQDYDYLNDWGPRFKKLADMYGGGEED
Source text: (§1) Mouse R-cadherin and N-cadherin plasmids were generous gifts from Dr. Masatoshi Takeichi (Kyoto University, Japan). The plasmids were sub-cloned into pDsRed2 N1 vectors (Clontech) to encode for fusion proteins with Red Fluorescent Protein (RFP) attached to the C-terminal end of the cadherin molecules. L-cells (mouse fibroblast L929 cells, ATCC #CRL-2148) were stably transfected with either R or N-cadherin pDsRed2 N1 using the Calcium Phosphate Transfection System (Life Technologies) according to the manufacturer's protocol. After screening by growth in media supplemented with Geneticin (700 μg/mL G418 Geneticin, Gibco BRL), positive clones were selected. Cells were examined for expression of RFP, and were tested for cadherin expression by immunoblotting and immunofluorescence staining. FIG. 6 illustrates the aggregation of L-cells expressing R and N-cadherins.
L-Cells were grown to near confluency followed by trypsinization with 0.01% trypsin+5 mM CaCl2 and no EDTA (TC) or 0.01% trypsin with 0.1 mM EDTA and no calcium (TE). The cells were collected and washed, followed by resuspension in Hanks buffer solution (HBSS)+1% BSA with (TC) or without (TE) 5 mM CaCl2. Cells were incubated at 37° C. in 0.5 mL solution at 2×10^5 cells per well of a 24 well plate with rocking at about 60-70 rpm with varying peptide concentrations. All assays were performed in triplicate. The extent of cellular aggregation was represented by the ratio of the total particle number after 2 hours of incubation (N2hr) to the initial particle number (N0). Particles were counted on a hemocytometer using the sum of 8 separate 20 μL counts/well, before (N0) and after (Nt) incubation. […]
Mouse fibroblast cells (lineage L929), commonly referred to as L-cells, were chosen because they are known to contain no endogenous cadherin expression. […] Immunoblot analysis detected high levels of R-cadherin and no N-cadherin expression in R-cadherin clone 8 (R-cad8), while high levels of N-cadherin expression and no R-cadherin expression was found in N-cadherin clone 3 (N-cad3), as shown in FIG. 7. […]

N-cadherin = molecular target: T2, N-cadherin (Mus musculus, UniProt P15116); assay: Aggregation assay, N-cadherin transfected L-cells; assay type: cell-based; settings: N-cadherin expressing L-cells; for IC50: 2 hours incubation, 5 mM CaCl2, read-out: IC50, inhibition of N-cadherin mediated aggregation
T2 construct: expressed in transfected cells
T2 sequence (P15116 160-906): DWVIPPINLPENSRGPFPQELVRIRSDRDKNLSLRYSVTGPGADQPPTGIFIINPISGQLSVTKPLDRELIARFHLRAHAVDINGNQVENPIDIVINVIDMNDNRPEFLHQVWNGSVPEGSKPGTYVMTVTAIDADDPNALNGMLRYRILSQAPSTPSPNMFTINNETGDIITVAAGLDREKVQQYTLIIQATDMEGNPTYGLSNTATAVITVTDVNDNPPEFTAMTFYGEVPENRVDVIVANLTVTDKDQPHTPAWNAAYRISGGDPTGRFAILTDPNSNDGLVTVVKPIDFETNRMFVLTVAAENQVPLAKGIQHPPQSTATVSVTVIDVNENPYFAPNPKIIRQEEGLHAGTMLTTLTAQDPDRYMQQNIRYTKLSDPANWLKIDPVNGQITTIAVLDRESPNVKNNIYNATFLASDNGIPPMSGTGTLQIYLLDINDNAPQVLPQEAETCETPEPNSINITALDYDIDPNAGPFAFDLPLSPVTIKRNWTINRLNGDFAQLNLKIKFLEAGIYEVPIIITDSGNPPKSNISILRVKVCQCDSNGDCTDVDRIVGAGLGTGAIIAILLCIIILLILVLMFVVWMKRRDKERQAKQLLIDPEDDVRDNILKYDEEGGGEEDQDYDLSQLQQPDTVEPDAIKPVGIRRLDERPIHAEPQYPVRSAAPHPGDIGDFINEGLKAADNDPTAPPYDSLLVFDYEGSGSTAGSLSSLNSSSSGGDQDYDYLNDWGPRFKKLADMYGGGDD
Source text: as §1
L-Cells were grown to near confluency followed by trypsinization with 0.01% trypsin+5 mM CaCl2 and no EDTA (TC) or 0.01% trypsin with 0.1 mM EDTA and no calcium (TE). The cells were collected and washed, followed by resuspension in Hanks buffer solution (HBSS)+1% BSA with (TC) or without (TE) 5 mM CaCl2. Cells were incubated at 37° C. in 0.5 mL solution at 2×10^5 cells per well of a 24 well plate with rocking at about 60-70 rpm with varying peptide concentrations. All assays were performed in triplicate. The extent of cellular aggregation was represented by the ratio of the total particle number after 2 hours of incubation (N2hr) to the initial particle number (N0). Particles were counted on a hemocytometer using the sum of 8 separate 20 μL counts/well, before (N0) and after (Nt) incubation. The results are illustrated in FIG. 8.
Mouse fibroblast cells (lineage L929), commonly referred to as L-cells, were chosen because they are known to contain no endogenous cadherin expression. R-cadherin stable transfectants were created and used to test the effects of the designed peptides on R-cadherin mediated aggregation. N-cadherin stable transfectants were also created and used to evaluate the peptides for cadherin selectivity, based on their effects on N-cadherin mediated aggregation. Immunoblot analysis detected high levels of R-cadherin and no N-cadherin expression in R-cadherin clone 8 (R-cad8), while high levels of N-cadherin expression and no R-cadherin expression was found in N-cadherin clone 3 (N-cad3), as shown in FIG. 7. Immunofluorescence confirmed the expression of the appropriate cadherin in these chosen clones. When tested in the aggregation assay, the morphology of the transfected cell lines was altered as a result of cadherin transfection. […]

Molecule	IC50 (R-cadherin; 2 hours incubation, 5 mM CaCl2, read-out: IC50, inhibition of R-cadherin mediated aggregation) [µM]	IC50 (N-cadherin) [µM]	effect on R-cadherin mediated aggregation (R-cadherin)	effect on N-cadherin mediated aggregation (N-cadherin)
CC(=O)N[C@H]1CSSC[C@@H](C(N)=O)NC(=O)[C@H](C(C)C)NC(=O)[C@H](C)NC(=O)[C@H](Cc2c[nH]cn2)NC1=O [cyclic HAV, CHAVC]	150 to 200	150 to 200	–	–
CC[C@H](C)[C@@H]1NC(=O)[C@@H](NC(C)=O)CSSC[C@@H](C(N)=O)NC(=O)[C@@H]2CCCN2C(=O)[C@H](CC(N)=O)NC1=O [cyclic INP, cyclic CINPC] (Ac-CINPC-NH2; disulfide 1-5)	–	< 300	–	–
cyclic CRADC (disulfide 1-5; also: peptides said to be amide-blocked at N-terminus and acetylated at C-terminus (as worded)) [cyclic RAD, control cyclic peptide CRADC]	–	–	little effect	little effect
cyclic CSDIC (disulfide 1-5; also: peptides said to be amide-blocked at N-terminus and acetylated at C-terminus (as worded)) [cyclic SDI, control cyclic peptide CSDIC]	–	–	little effect	little effect
